Tests used:
mad14_orysj MADS14 [1] = target: mad14_orysj MADS14 (UniProt Q10CQ1)
mad14_orysj MADS14 [2] = target: mad14_orysj MADS14 (UniProt Q10CQ1); remark: listed apart in the source

mad14_orysj MADS14, sequence (Q10CQ1 whole entry): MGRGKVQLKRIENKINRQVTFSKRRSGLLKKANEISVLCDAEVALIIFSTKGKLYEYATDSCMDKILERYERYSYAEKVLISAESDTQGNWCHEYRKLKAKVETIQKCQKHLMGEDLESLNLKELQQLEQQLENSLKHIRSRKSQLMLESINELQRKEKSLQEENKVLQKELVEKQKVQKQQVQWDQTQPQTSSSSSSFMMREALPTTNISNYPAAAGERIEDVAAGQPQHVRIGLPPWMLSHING
MADS-box transcription factor 6 (Oryza sativa subsp. japonica (Rice)), Q6EU39 L110R;L118R;L159R;L166R, sequence (Q6EU39 whole entry L110R/L118R/L159R/L166R): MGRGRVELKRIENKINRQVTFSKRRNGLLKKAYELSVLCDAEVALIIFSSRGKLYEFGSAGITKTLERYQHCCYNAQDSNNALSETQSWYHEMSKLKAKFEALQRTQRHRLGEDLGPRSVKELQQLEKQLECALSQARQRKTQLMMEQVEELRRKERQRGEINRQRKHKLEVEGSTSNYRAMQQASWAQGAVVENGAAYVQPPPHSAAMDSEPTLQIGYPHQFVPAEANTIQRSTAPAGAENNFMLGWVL
MADS-box transcription factor 6 (Oryza sativa subsp. japonica (Rice)), Q6EU39 L126R;L134R, sequence (Q6EU39 whole entry L126R/L134R): as the sequence (Q6EU39 whole entry L110R/L118R/L159R/L166R) above, with R110L, R118L, L126R, L134R, R159L, R166L counted along it
MADS-box transcription factor 6 (Oryza sativa subsp. japonica (Rice)), Q6EU39 L110R;L118R, sequence (Q6EU39 whole entry L110R/L118R): as the sequence (Q6EU39 whole entry L110R/L118R/L159R/L166R) above, with R159L, R166L counted along it
MADS-box transcription factor 6 (Oryza sativa subsp. japonica (Rice)), Q6EU39 L110S;L118R, sequence (Q6EU39 whole entry L110S/L118R): as the sequence (Q6EU39 whole entry L110R/L118R/L159R/L166R) above, with R110S, R159L, R166L counted along it
MADS-box transcription factor 6 (Oryza sativa subsp. japonica (Rice)), Q6EU39 L159R;L166R, sequence (Q6EU39 whole entry L159R/L166R): as the sequence (Q6EU39 whole entry L110R/L118R/L159R/L166R) above, with R110L, R118L counted along it

Row | Substance | effect of a mutation on the interaction (mad14_orysj MADS14 [1]) | effect of a mutation on the interaction (mad14_orysj MADS14 [2])
1 | MADS-box transcription factor 6 (Oryza sativa subsp. japonica (Rice)), Q6EU39 L110S;L118R | decreasing interaction strength | –
2 | MADS-box transcription factor 6 (Oryza sativa subsp. japonica (Rice)), Q6EU39 L159R;L166R | – | disrupting interaction strength
3 | MADS-box transcription factor 6 (Oryza sativa subsp. japonica (Rice)), Q6EU39 L110R;L118R | – | decreasing interaction strength

Now from value to substance:

Row | effect of a mutation on the interaction (mad14_orysj MADS14 [1]) | effect of a mutation on the interaction (mad14_orysj MADS14 [2]) | Substance
4 | disrupting interaction strength | disrupting interaction strength | MADS-box transcription factor 6 (Oryza sativa subsp. japonica (Rice)), Q6EU39 L110R;L118R;L159R;L166R
5 | disrupting interaction strength | disrupting interaction strength | MADS-box transcription factor 6 (Oryza sativa subsp. japonica (Rice)), Q6EU39 L126R;L134R

Reference: IntAct's records for PubMed 10444103
